Test results as given in patent publication US20150065381A1.
Several values for one entry are separate records, joined by “and”; a condition that tells them apart may be missing. Equal values may be shown once.

Legend:
[1] = biological target: BG505 envelope (gp120 monomer released from lysed pseudovirus) (HIV-1); assay: antigen capture ELISA, mAb 0.8 ug/ml, plate 2
[2] = biological target: aMLV envelope (from lysed pseudovirus); assay: antigen capture ELISA, mAb 0.8 ug/ml, plate 2
[3] = biological target: BG505 envelope (gp120 monomer released from lysed pseudovirus) (HIV-1); assay: antigen capture ELISA, mAb 2.5 ug/ml, plate 2
[4] = biological target: aMLV envelope (from lysed pseudovirus); assay: antigen capture ELISA, mAb 2.5 ug/ml, plate 2
[5] = biological target: BG505 envelope (gp120 monomer released from lysed pseudovirus) (HIV-1); assay: antigen capture ELISA, mAb 0.3 ug/ml, plate 1
[6] = biological target: aMLV envelope (from lysed pseudovirus); assay: antigen capture ELISA, mAb 0.3 ug/ml, plate 1
[7] = biological target: BG505 envelope (gp120 monomer released from lysed pseudovirus) (HIV-1); assay: antigen capture ELISA, mAb 0.3 ug/ml, plate 2
[8] = biological target: aMLV envelope (from lysed pseudovirus); assay: antigen capture ELISA, mAb 0.3 ug/ml, plate 2
[9] = biological target: HIV-1 envelope clone G-011.c02 (multiclade gp160 clone panel) (HIV-1); assay: capture ELISA, plate 2, mAb 0.3 ug/ml
[10] = biological target: HIV-1 16055 envelope (HIV-1); assay: capture ELISA, plate 2, mAb 0.3 ug/ml
[11] = biological target: HIV-1 envelope of gp160 clone B-Acute-010.c08 (HIV-1); assay: capture ELISA, plate 2, mAb 0.3 ug/ml
[12] = biological target: HIV-1 envelope of gp160 clone AG-010.c11 (HIV-1); assay: capture ELISA, plate 2, mAb 0.3 ug/ml
[13] = biological target: HIV-1 envelope of gp160 clone B-Acute-010.c09 (HIV-1); assay: capture ELISA, plate 2, mAb 0.3 ug/ml
[14] = biological target: HIV-1 envelope clone G-011.c05 (multiclade gp160 clone panel) (HIV-1); assay: capture ELISA, plate 2, mAb 0.3 ug/ml
[15] = biological target: HIV-1 envelope of gp160 clone B-Chronic-014.c02 (HIV-1); assay: capture ELISA, plate 2, mAb 0.3 ug/ml
[16] = biological target: HIV-1 JRCSF envelope (HIV-1) (UniProt P20871); assay: capture ELISA, plate 2, mAb 0.3 ug/ml
[17] = biological target: HIV-1 envelope of gp160 clone AG-010.c14 (HIV-1); assay: capture ELISA, plate 2, mAb 0.3 ug/ml
[18] = biological target: HIV-1 envelope of gp160 clone B-Acute-009-c08 (HIV-1); assay: capture ELISA, plate 2, mAb 0.3 ug/ml
[19] = biological target: HIV-1 envelope of gp160 clone B-Acute-008.c11 (HIV-1); assay: capture ELISA, plate 2, mAb 0.3 ug/ml
[20] = biological target: HIV-1 JRFL envelope (HIV-1); assay: capture ELISA, plate 2, mAb 0.3 ug/ml
[21] = biological target: HIV-1 envelope clone G-011.c02 (multiclade gp160 clone panel) (HIV-1); assay: capture ELISA, plate 2, mAb 2.5 ug/ml
[22] = biological target: HIV-1 envelope of gp160 clone B-Acute-010.c08 (HIV-1); assay: capture ELISA, plate 2, mAb 2.5 ug/ml
[23] = biological target: HIV-1 envelope of gp160 clone B-Acute-010.c09 (HIV-1); assay: capture ELISA, plate 2, mAb 2.5 ug/ml
[24] = biological target: HIV-1 JRFL envelope (HIV-1); assay: capture ELISA, plate 2, mAb 2.5 ug/ml
[25] = biological target: BG505 envelope (gp120 monomer released from lysed pseudovirus) (HIV-1); assay: antigen capture ELISA, mAb 0.8 ug/ml, plate 1
[26] = biological target: aMLV envelope (from lysed pseudovirus); assay: antigen capture ELISA, mAb 0.8 ug/ml, plate 1
[27] = biological target: HIV-1 16055 envelope (HIV-1); assay: capture ELISA, plate 2, mAb 0.8 ug/ml
[28] = biological target: HIV-1 envelope of gp160 clone AG-010.c11 (HIV-1); assay: capture ELISA, plate 2, mAb 0.8 ug/ml
[29] = biological target: HIV-1 envelope clone G-011.c05 (multiclade gp160 clone panel) (HIV-1); assay: capture ELISA, plate 2, mAb 0.8 ug/ml
[30] = biological target: HIV-1 JRCSF envelope (HIV-1) (UniProt P20871); assay: capture ELISA, plate 2, mAb 0.8 ug/ml
[31] = biological target: HIV-1 envelope of gp160 clone AG-010.c14 (HIV-1); assay: capture ELISA, plate 2, mAb 0.8 ug/ml
[32] = biological target: HIV-1 envelope of gp160 clone B-Acute-009-c08 (HIV-1); assay: capture ELISA, plate 2, mAb 0.8 ug/ml
[33] = biological target: HIV-1 envelope of gp160 clone B-Acute-008.c11 (HIV-1); assay: capture ELISA, plate 2, mAb 0.8 ug/ml
[34] = biological target: HIV-1 JRFL envelope (HIV-1); assay: capture ELISA, plate 2, mAb 0.8 ug/ml
[35] = biological target: HIV-1 envelope clone BF-002.c05 (multiclade gp160 clone panel) (HIV-1); assay: capture ELISA, plate 2, mAb 0.3 ug/ml
[36] = biological target: HIV-1 envelope clone F1-002.c11 (multiclade gp160 clone panel) (HIV-1); assay: capture ELISA, plate 2, mAb 0.3 ug/ml
[37] = biological target: HIV-1 envelope clone F1-002.c16 (multiclade gp160 clone panel) (HIV-1); assay: capture ELISA, plate 2, mAb 0.3 ug/ml
[38] = biological target: HIV-1 envelope clone BF-002.c08 (multiclade gp160 clone panel) (HIV-1); assay: capture ELISA, plate 2, mAb 0.3 ug/ml
[39] = biological target: HIV-1 envelope clone BF-002.c08 (multiclade gp160 clone panel) (HIV-1); assay: capture ELISA, plate 2, mAb 0.8 ug/ml

Substance | ELISA OD [1] | ELISA OD [2] | ELISA OD [3] | ELISA OD [4] | ELISA OD [5] | ELISA OD [6] | ELISA OD [7] | ELISA OD [8] | ELISA OD [9] | ELISA OD [10] | ELISA OD [11] | ELISA OD [12] | ELISA OD [13] | ELISA OD [14] | ELISA OD [15] | ELISA OD [16] | ELISA OD [17] | ELISA OD [18] | ELISA OD [19] | ELISA OD [20] | further results
PG9 (antibody) | 0.261 OD | 0.056 OD and 0.051 OD | 0.346 OD | 0.059 OD and 0.053 OD | 0.162 OD | 0.068 OD and 0.067 OD | 0.162 OD | 0.057 OD and 0.063 OD | 0.052 OD | 0.118 OD and 0.146 OD | 0.079 OD | 0.257 OD | 0.074 OD | 0.076 OD | 0.479 OD | 0.113 OD and 0.131 OD | 0.274 OD | 0.057 OD | 0.097 OD | 0.06 OD and 0.056 OD | ELISA OD [21]: 0.052 OD; ELISA OD [22]: 0.278 OD; ELISA OD [23]: 0.106 OD; ELISA OD [24]: 0.058 OD and 0.051 OD; ELISA OD [25]: 0.261 OD; ELISA OD [26]: 0.091 OD and 0.06 OD; ELISA OD [27]: 0.169 OD and 0.18 OD; ELISA OD [28]: 0.411 OD; ELISA OD [29]: 0.116 OD; ELISA OD [30]: 0.146 OD and 0.147 OD; ELISA OD [31]: 0.528 OD; ELISA OD [32]: 0.062 OD; ELISA OD [33]: 0.11 OD; ELISA OD [34]: 0.06 OD and 0.05 OD
PGT145 (antibody) | 0.066 OD | 0.062 OD | 0.077 OD | 0.07 OD and 0.066 OD | 0.066 OD | 0.057 OD and 0.116 OD | 0.066 OD | 0.065 OD and 0.157 OD | 0.104 OD | 0.066 OD and 0.1 OD | 0.088 OD | 0.075 OD | 0.082 OD | 0.074 OD | 0.058 OD | 0.067 OD and 0.115 OD | 0.061 OD | 0.084 OD | 0.092 OD | 0.068 OD and 0.08 OD | ELISA OD [35]: 0.114 OD; ELISA OD [36]: 0.059 OD; ELISA OD [37]: 0.254 OD; ELISA OD [38]: 0.088 OD; ELISA OD [21]: 0.07 OD; ELISA OD [22]: 0.316 OD; ELISA OD [23]: 0.074 OD; ELISA OD [24]: 0.075 OD and 0.058 OD; ELISA OD [25]: 0.066 OD; ELISA OD [26]: 0.056 OD and 0.073 OD; ELISA OD [27]: 0.067 OD and 0.064 OD; ELISA OD [28]: 0.074 OD; ELISA OD [29]: 0.096 OD; ELISA OD [30]: 0.087 OD and 0.063 OD; ELISA OD [31]: 0.074 OD; ELISA OD [32]: 0.178 OD; ELISA OD [39]: 0.057 OD; ELISA OD [33]: 0.095 OD; ELISA OD [34]: 0.062 OD and 0.054 OD
PGT151 (antibody) | 0.054 OD | 0.054 OD and 0.078 OD | 0.063 OD | 0.075 OD and 0.104 OD | 0.057 OD | 0.068 OD and 0.057 OD | 0.057 OD | 0.053 OD and 0.128 OD | 0.116 OD | 0.054 OD and 0.096 OD | 0.149 OD | 0.075 OD | 0.072 OD | 0.057 OD | 0.216 OD | 0.069 OD and 0.065 OD | 0.121 OD | 0.063 OD | 0.234 OD | 0.073 OD and 0.088 OD | ELISA OD [35]: 0.1 OD; ELISA OD [36]: 0.058 OD; ELISA OD [37]: 0.107 OD; ELISA OD [38]: 0.09 OD; ELISA OD [21]: 0.113 OD; ELISA OD [22]: 0.148 OD; ELISA OD [23]: 0.095 OD; ELISA OD [24]: 0.098 OD and 0.072 OD; ELISA OD [25]: 0.054 OD; ELISA OD [26]: 0.054 OD and 0.05 OD; ELISA OD [27]: 0.06 OD; ELISA OD [28]: 0.061 OD; ELISA OD [29]: 0.079 OD; ELISA OD [30]: 0.064 OD and 0.055 OD; ELISA OD [31]: 0.131 OD; ELISA OD [32]: 0.082 OD; ELISA OD [39]: 0.054 OD; ELISA OD [33]: 0.203 OD; ELISA OD [34]: 0.077 OD and 0.054 OD
